Data taken from publication doi:10.1101/2021.10.27.466080, “The structure of a native orthobunyavirus ribonucleoprotein reveals a key role for viral RNA in maintaining its helical architecture” (bioRxiv, 2021).

Molecular target: the molecule itself
Experiment: cryo-EM structure; native BUNV RNPs purified from virions, TNE with 25 mM NaCl; cryo-ET sub-tomogram average (20 Å) used as reference for a single-particle average with helical symmetry at 13 Å; 'split' NP from PDB 3ZLA fitted flexibly by molecular dynamics (MDFF)

B1: Bunyamwera virus (BUNV) nucleocapsid protein (NP) (natural protein)
chain: MIELEFHDVAANTSSTFDPEVAYANFKRVHTTGLSYDHIRIFYIKGREIKTSLAKRSEWEVTLNLGGWKITVYNTNFPGNRNNPVPDDGLTLHRLSGFLARYLLEKMLKVSEPEKLIIKSKIINPLAEKNGITWNDGEEVYLSFFPGSEMFLGTFRFYPLAIGIYKVQRKEMEPKYLEKTMRQRYMGLEAATWTVSKLTEVQSALTVVSSLGWKKTNVSAAARDFLAKFGINM
notes: Nucleocapsid protein (NP) of Bunyamwera virus, as it stands in native ribonucleoproteins (RNPs) with the genomic RNA; NP stands in the RNP as a helical polymer wrapped around viral genomic RNA (S, M, L segments); about 3.7 NP per helical turn; The number of copies depends on the segment; also called BUNV NP; nucleoprotein; source: native RNPs purified from BUNV virions propagated in BHK-21 cells …
  binding result: binds
